From US20050287638A1 come the findings set out here.

In this test the target is recombinant 190 kDa hHARE expressed in Flp-In 293 cells (human).

With “mouse IgG (polyclonal serum or antibody)”, the endocytosis of ^125I-HA by 190hHARE Flp-In 293 cell lines at 37° C. (% of the control value) turned out to be 103.
